{"source": "the Human Domainome abundance scans (Beltran et al. 2025)", "parents": {"B1": {"name": "POU domain, class 4, transcription factor 2, residues 256 to 327; numbered along this chain, Q12837 (parent)", "chain": "RDLEAFAERFKQRRIKLGVTQADVGSALANLKIPGVGSLSQSTICRFESLTLSHNNMIALKPILQAWLEEAE"}}, "note": "± gives the uncertainty stated by the source.", "data": [{"variants_of": "B1", "test": "abundance fitness (aPCA) (normalised: wild type 0, dead -1); higher = more abundant; growth selection in yeast, the domain comes from the species named", "conditions": "Homo sapiens", "values": [{"variant": "RDLEAFAERFKQRRIKLGVTQADVGSALANLKIPGVGSLSQSTICRFESLTLVHNNMIALKPILQAWLEEAE", "note": "[S53V]", "abundance fitness": "-0.492 ± 0.11"}, {"variant": "RDLEAFAERFKQRRIKLGVTQADVGSALANLKIPGVGSLSQSTICRFESLTLFHNNMIALKPILQAWLEEAE", "note": "[S53F]", "abundance fitness": "-0.882 ± 0.2"}, {"variant": "RDLEAFAERFKQRRIKLGVTQADVGSALANLKIPGVGSLSQSTICRFESLTLCHNNMIALKPILQAWLEEAE", "note": "[S53C]", "abundance fitness": "-0.514 ± 0.18"}, {"variant": "RDLEAFAERFKQRRIKLGVTQADVGSALANLKIPGVGSLSQSTICRFESLTLHHNNMIALKPILQAWLEEAE", "note": "[S53H]", "abundance fitness": "-0.376 ± 0.15"}, {"variant": "RDLEAFAERFKQRRIKLGVTQADVGSALANLKIPGVGSLSQSTICRFESLTLNHNNMIALKPILQAWLEEAE", "note": "[S53N]", "abundance fitness": "-0.605 ± 0.29"}, {"variant": "RDLEAFAERFKQRRIKLGVTQADVGSALANLKIPGVGSLSQSTICRFESLTLYHNNMIALKPILQAWLEEAE", "note": "[S53Y]", "abundance fitness": "-0.556 ± 0.18"}, {"variant": "RDLEAFAERFKQRRIKLGVTQADVGSALANLKIPGVGSLSQSTICRFESLTLGHNNMIALKPILQAWLEEAE", "note": "[S53G]", "abundance fitness": "-0.102 ± 0.059"}, {"variant": "RDLEAFAERFKQRRIKLGVTQADVGSALANLKIPGVGSLSQSTICRFESLTLMHNNMIALKPILQAWLEEAE", "note": "[S53M]", "abundance fitness": "-0.371 ± 0.23"}, {"variant": "RDLEAFAERFKQRRIKLGVTQADVGSALANLKIPGVGSLSQSTICRFESLTLLHNNMIALKPILQAWLEEAE", "note": "[S53L]", "abundance fitness": "-0.729 ± 0.1"}, {"variant": "RDLEAFAERFKQRRIKLGVTQADVGSALANLKIPGVGSLSQSTICRFESLTLKHNNMIALKPILQAWLEEAE", "note": "[S53K]", "abundance fitness": "-0.738 ± 0.35"}, {"variant": "RDLEAFAERFKQRRIKLGVTQADVGSALANLKIPGVGSLSQSTICRFESLTLDHNNMIALKPILQAWLEEAE", "note": "[S53D]", "abundance fitness": "0.043 ± 0.1"}, {"variant": "RDLEAFAERFKQRRIKLGVTQADVGSALANLKIPGVGSLSQSTICRFESLTLEHNNMIALKPILQAWLEEAE", "note": "[S53E]", "abundance fitness": "-0.066 ± 0.12"}, {"variant": "RDLEAFAERFKQRRIKLGVTQADVGSALANLKIPGVGSLSQSTICRFESLTLAHNNMIALKPILQAWLEEAE", "note": "[S53A]", "abundance fitness": "-0.163 ± 0.046"}, {"variant": "RDLEAFAERFKQRRIKLGVTQADVGSALANLKIPGVGSLSQSTICRFESLTLSHRNMIALKPILQAWLEEAE", "note": "[N55R]", "abundance fitness": "-0.055 ± 0.043"}, {"variant": "RDLEAFAERFKQRRIKLGVTQADVGSALANLKIPGVGSLSQSTICRFESLTLSHKNMIALKPILQAWLEEAE", "note": "[N55K]", "abundance fitness": "-0.016 ± 0.15"}, {"variant": "RDLEAFAERFKQRRIKLGVTQADVGSALANLKIPGVGSLSQSTICRFESLTLSHINMIALKPILQAWLEEAE", "note": "[N55I]", "abundance fitness": "-0.197 ± 0.13"}, {"variant": "RDLEAFAERFKQRRIKLGVTQADVGSALANLKIPGVGSLSQSTICRFESLTLSHMNMIALKPILQAWLEEAE", "note": "[N55M]", "abundance fitness": "-0.253 ± 0.15"}, {"variant": "RDLEAFAERFKQRRIKLGVTQADVGSALANLKIPGVGSLSQSTICRFESLTLSHHNMIALKPILQAWLEEAE", "note": "[N55H]", "abundance fitness": "-0.326 ± 0.14"}, {"variant": "RDLEAFAERFKQRRIKLGVTQADVGSALANLKIPGVGSLSQSTICRFESLTLSHDNMIALKPILQAWLEEAE", "note": "[N55D]", "abundance fitness": "-0.009 ± 0.12"}, {"variant": "RDLEAFAERFKQRRIKLGVTQADVGSALANLKIPGVGSLSQSTICRFESLTLSHANMIALKPILQAWLEEAE", "note": "[N55A]", "abundance fitness": "0.137 ± 0.086"}, {"variant": "RDLEAFAERFKQRRIKLGVTQADVGSALANLKIPGVGSLSQSTICRFESLTLSHFNMIALKPILQAWLEEAE", "note": "[N55F]", "abundance fitness": "-0.396 ± 0.13"}, {"variant": "RDLEAFAERFKQRRIKLGVTQADVGSALANLKIPGVGSLSQSTICRFESLTLSHSNMIALKPILQAWLEEAE", "note": "[N55S]", "abundance fitness": "0.013 ± 0.051"}, {"variant": "RDLEAFAERFKQRRIKLGVTQADVGSALANLKIPGVGSLSQSTICRFESLTLSHLNMIALKPILQAWLEEAE", "note": "[N55L]", "abundance fitness": "-0.121 ± 0.055"}, {"variant": "RDLEAFAERFKQRRIKLGVTQADVGSALANLKIPGVGSLSQSTICRFESLTLSHQNMIALKPILQAWLEEAE", "note": "[N55Q]", "abundance fitness": "0.073 ± 0.088"}, {"variant": "RDLEAFAERFKQRRIKLGVTQADVGSALANLKIPGVGSLSQSTICRFESLTLSHENMIALKPILQAWLEEAE", "note": "[N55E]", "abundance fitness": "-0.184 ± 0.39"}, {"variant": "RDLEAFAERFKQRRIKLGVTQADVGSALANLKIPGVGSLSQSTICRFESLTLSHGNMIALKPILQAWLEEAE", "note": "[N55G]", "abundance fitness": "-0.009 ± 0.098"}, {"variant": "RDLEAFAERFKQRRIKLGVTQADVGSALANLKIPGVGSLSQSTICRFESLTLSFNNMIALKPILQAWLEEAE", "note": "[H54F]", "abundance fitness": "-0.086 ± 0.11"}, {"variant": "RDLEAFAERFKQRRIKLGVTQADVGSALANLKIPGVGSLSQSTICRFESLTLSDNNMIALKPILQAWLEEAE", "note": "[H54D]", "abundance fitness": "-0.183 ± 0.21"}, {"variant": "RDLEAFAERFKQRRIKLGVTQADVGSALANLKIPGVGSLSQSTICRFESLTLSWNNMIALKPILQAWLEEAE", "note": "[H54W]", "abundance fitness": "-0.119 ± 0.088"}, {"variant": "RDLEAFAERFKQRRIKLGVTQADVGSALANLKIPGVGSLSQSTICRFESLTLSGNNMIALKPILQAWLEEAE", "note": "[H54G]", "abundance fitness": "-0.314 ± 0.064"}, {"variant": "RDLEAFAERFKQRRIKLGVTQADVGSALANLKIPGVGSLSQSTICRFESLTLSPNNMIALKPILQAWLEEAE", "note": "[H54P]", "abundance fitness": "-0.079 ± 0.051"}, {"variant": "RDLEAFAERFKQRRIKLGVTQADVGSALANLKIPGVGSLSQSTICRFESLTLSMNNMIALKPILQAWLEEAE", "note": "[H54M]", "abundance fitness": "0.005 ± 0.18"}, {"variant": "RDLEAFAERFKQRRIKLGVTQADVGSALANLKIPGVGSLSQSTICRFESLTLSQNNMIALKPILQAWLEEAE", "note": "[H54Q]", "abundance fitness": "0.034 ± 0.06"}, {"variant": "RDLEAFAERFKQRRIKLGVTQADVGSALANLKIPGVGSLSQSTICRFESLTLSLNNMIALKPILQAWLEEAE", "note": "[H54L]", "abundance fitness": "-0.042 ± 0.049"}, {"variant": "RDLEAFAERFKQRRIKLGVTQADVGSALANLKIPGVGSLSQSTICRFESLTLSENNMIALKPILQAWLEEAE", "note": "[H54E]", "abundance fitness": "-0.3 ± 0.34"}, {"variant": "RDLEAFAERFKQRRIKLGVTQADVGSALANLKIPGVGSLSQSTICRFESLTLSANNMIALKPILQAWLEEAE", "note": "[H54A]", "abundance fitness": "-0.005 ± 0.065"}, {"variant": "RDLEAFAERFKQRRIKLGVTQADVGSALANLKIPGVGSLSQSTICRFESLTLSSNNMIALKPILQAWLEEAE", "note": "[H54S]", "abundance fitness": "-0.145 ± 0.068"}]}]}
